Measured values published in US20260158070A1 (UNIVERSITY OF MARYLAND BALTIMORE, published 2026).

What was measured:
[1] = target: T1, wild-type K-Ras 4A (in RASless MEFs) (Homo sapiens (Human), UniProt P01116 1-186); test: flow cytometry, surface staining of RASless MEFs, 10 µg/ml
T1 construct: Expressed by lentiviral transduction in RASless mouse embryonic fibroblasts; stained on live cells by flow cytometry, in lysates by western blot; also called MEF-K-Ras-4A

[2] = target: T2, wild-type K-Ras 4B (in RASless MEFs) (Homo sapiens (Human), UniProt P01116-2 1-185); test: as above
T2 construct: Expressed by lentiviral transduction in RASless mouse embryonic fibroblasts; stained on live cells by flow cytometry, in lysates by western blot; also called MEF-K-Ras-4B; 4B splice variant of K-Ras

B1: Human Anti-K-Ras Antibody 1 (antibody, human IgG1, lambda, N297G, V domains shown)
VH: EVQLVQSGGGVVQPGRSLRLSCAASGFTSRHPGMHWVRQAPGKGLEWVAVISHDGSKKYYADSVKGRFTISRDNSKNTLFVQLSSLRPEDTAVYYCATSLYSSMDLWGQGTTVTVSS
VL: QSVVTQPPSVSAAPGQKVTISCSGSNSNIGKNYVSWFQQVPGTAPKLLIFEDNQRPSGIPDRFSASKSGTSASLAISGLQSEDEADYYCAAWDDKFGVHWVFGGGTKLTVLG
notes: also called human K-Ras antibody 1; Human K-RAS Antibody 1
binding result [1]: binds | binding result [2]: binds
